Data from the nanobody polyreactivity screen of Harvey et al. (2022).

Test: yeast display, Sf9 membrane polyspecificity reagent, FACS + sequencing; frameworks hold sequencing errors
Method in brief: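 Polyreactivity labels are assigned by the sorting gate from which each nanobody was recovered. The gates were low and high (top ~1%), set on anti-HA fluorescence for expression and streptavidin fluorescence for reagent binding. Before sorting, galactose-induced (36–48 hours) yeast display cells were stained for 1 hour at 4 °C with 10% biotinylated, detergent-solubilized Sf9 membrane reagent.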

Sequence | polyreactivity (PSR sort gate)
QVQLVESGGGLVQAGGSLRLSCAASGLTFYGNAMGWYIQAPGKERELVAAISSRGGRTYYADSVKGRFTISRDNAKNTVYLQMNSLKPEDTAVYYCNDRYKYPDMDYWGQGTQVTVSS | high polyreactivity
QVQLVESGGGLVQAGGSRLSCAASGLIFISYTMGWYRPAPGKERELVAAIDSSGGNTYYADSVKGRFTISRDNAKNTVYLQMNSLKPEDTAVYYCAKDVGHGAGNLMGYWGQGTQVTVSS | low polyreactivity
QVQLHESGGGLVQSGGSLRLICAASGSISHYIFMGWYRQAPGKEREFVAGIGYGGTTNNADSVKGRFTISRDNAKNTVYLQMNSLKPEDTAMYYCAAREATEFYLDYWGQGTQVTVSS | low polyreactivity
QVQLVESGGGLVQAGGSLRLSCAASGRTFYSYAMGWYRQAPGKEREFVAAISVRGVITYYADSVKGRFTISRDNAKNTVYLQMNSLKPEDTAVYDCAADWSGYYTYDYWGQGTQVTVSS | low polyreactivity
EEELVESGGGLVQAGGSLRLTCAASGFIFAYNAMGWYRQAPGKEREFVAAISRSGGSTYYADSVKGRFTISRDNAKNTVYLQMNSLKPEDTAVYYCAARRSVGGYGYWGQGTQVTVSS | high polyreactivity
QVQLVESGGGLVQAGGSLRLSCAASGSTFVGYTLGWSRQAPGNERELVASLSWDGGSTYYADSVKGRFTISRDNAKNTVYLQMNSLKPEDTAVYYCNADQGIIGAYTNSLPEYDYWGLGTQVTVSS | low polyreactivity
QVQHVDSGAGLVQAGGSLRLRCSASGLILKDYAMGWSIQPPGKERELVAAISTSAGTTYYADSVKGRFTISRDNAKNTVYLQMKSQKPEETAVYYCAAGYLPYYIRYYHPVTVDYDYWGQGTQVTVSS | low polyreactivity
QVQLVESGGGLVQAGGSLRLSCAASGSIFSANAMGWYRQAPGKERELVAAISSSGNTNYSDSVKWRFTISRDNAKNTFYLQMNSLKPEDTAVYYCAVELKQVTPGLGYITLDYWGQGTQVTVSS | low polyreactivity
QVQLVESGGGLVQAGGSLRLSCAASGRILNWNVMGWYRQAPGKERELVAGISSDGSTYADSVKGRFTISRDNAKNTVYFQMNSLKPEDTAVYYCAADRVGLSRGYDYWGQGTQVTVSS | low polyreactivity
QFQRGESGGGLVQAGGSLRLSCAASGRLFYSYAMGGYRQAPGKERELVAAINSGDRTYYADSVKGRFTISRDNAKNTVYLQKNSLNPEDPAVYYCATRWFAFPWDEYNYWGQGSQVTVSS | low polyreactivity
QVQLVESGGGLVQAGGSLRLSCAASGSTFPYNAMGWYRQAPGKERELVAAITGRGGSTYYADSVKGRFTISRDNAKNTVYLQMNSLKPEDTAVYYCGADFWYSYYYWGQGTQVTVSS | high polyreactivity
QVQLVESGGGLVQAGGSLRLSCSASGRTFDGYAMVWYRQAPGKEREMVASITRGGGSTYYADSVKGRFTISRDNAKNTVYLQMNSLKPEDTAVYYCATSDRQVKYDYWGQGTQVTVSS | low polyreactivity
QGQLVESGGGLVQAGGSLRLRSAASGRTFNYYAMGWYRQAHGKERELVATSSWSGVSTRYADSVKGRFTISRDNAKNTVYLEMNSLNPEDTAVYYCNAGYSKRSFYSAYGYWGEGTQVTVSS | high polyreactivity
QVQLVESGGGLVQAGGSLRLSCAASVRTSGRYAMGWYRQAPGKERELVAAISWSGGSTYYADSVQGRFTSSRDNAKNTVYLQMNSLKPEDTAVYYCNAQHALGYYYWGQGTQVTVSS | low polyreactivity
QVQLVESGGGLVQAGGSLRLSCAASGSIITYYAMGWYRQAPGKDSELVAVISASGGRTYYADSVKGRFTISRDNAKNTVYLQMISLKPEDTAVYYCAAYQSIYSFKFGYWGQGTQVTVSS | high polyreactivity
QVQLVESGGGLVQAGGSLRLSCAASGSNFTYNRMGWYRQAPGKEREFVDAITWTGGSTYAYSVKGRFTISRDNAKNTVYLQINSLKPEDTAVYYCAAVRRISWYTPVITRRYYYWGQGTQVTVSS | high polyreactivity
QVQLVESGGGLVQAGGSLSLSCAASGRLFKIDAMGWYRQAPGKERELVATISSGGRTNYADSVKGRFTISRDNAKNSVYLQMNSLKPEVTAVYYCNAGARVLYETESFDYWGQGIQVTVSS | low polyreactivity
QVHLVESGGGLVQAGGSLRLSCAASGSTFGYNAMGWYRQAPGKVWELVAVISYSGGSPYYADSVKGRFTLSRDNAKNTVSLQMNSLKPADTAVYYCAKRALTSTRYRVKYDSWGQGTQVTVAS | high polyreactivity
QVQLVESGGGLVQAGGSLRLSCAASGFTFYYYAMGWYRQAPGKESELVAAITWSGDITSYADSVKGRFTISRDNAKNTVYLQMNSLKPEDTAVYYCAAYVYVPGYNAAYDYWGQGTQVTVSS | low polyreactivity
QVQLVETGGGLVQAGGSLRLSCAASGITIRPYTMGWYRQAPGKERELVARISRRGGSTYYADSVKGRFTISRDNAKNTVYLQMNSLKPEDTAVYYCATRSRAHISPYDYWGQGTQVTVSS | high polyreactivity

Sequence | polyreactivity (PSR sort gate)
QVQLVETGGGLVHAGGSLRLSCAASGFIFTEYAMGWYRQAPGKEMELVAAISRSDDATHYADSVKGRFTISRDNAKNTVSLQMNSLKTEDTAVYNCTVAPEGYSLVDTSPYYYWGQGTQVTVSS | low polyreactivity
QVQLVDSGGGLVQAGGSLRLSCAASGNTFRYYVMGWYRQAPGKERELVAASTSSGGNTYYADSVKGRFTISRDNAKNTVYLQMNSLKPEDTAVYYCAASYDINYYFSDYNYWGQGTQVTVSS | high polyreactivity
QVQLVESGGGLVQAGGSLRLSCAASGSIFLRYAMGWYRQAPGKESELVARISWSGGSTYYADSVKGRFTISRDNAKNTVYLQMNSLKPEDTAVYYCAAGFRAYGELDYWGQGTQVTVSS | low polyreactivity
HVQLEESGGGLVQAGGSLRLSFAASGSIRKYYAMGSYIQAPAKERELDAAISGSGSTTYYADSVKGRFTISRDNAKNTVYLELNSLKPEDTAVYYCAAVYAFGNRYAYGSDSWGQGTQVTVSS | low polyreactivity
QVQLVESGGGLVQAGGSLRLSCAASGRNFNVKAMGWYIQAPGKESELVAGITRGGITTYADSVKGRFTISRDNAKNSVYLQMYSLKPVDTAVYYCAAVGWGSRYDTWYYLYDYWGQGSQVTVSS | high polyreactivity
QVQLVESGGGLVQAGGSLPLSCAASGSTFNGYAMGWYIQAPGKEWELVAVISSGGTTNYADSVKGRFTISRDNAKNTVYLQMNSLKPEDTAVYYCAADIGHRYHYRFDYWGQGTQVTVSS | low polyreactivity
QVQLVESGGGLVQAGGSLRLSCAASGFILYDYAMGWYRQAPGKEREFVAAISWSGGRTYYADSVKGRFTISRDNAKNTVYLLLNSLNPEASAVYYCAVDAYRYWWTTYVSDFDYWGQGTQLTVSS | high polyreactivity
QVQLVESVGGLVQAGGSLRLSCAASGSIFAYNTMGWYRQAPGKERELVAAIRSRGGSTYYADSVKGRFTISRDNAKNTVYIQMNSLKPEDTPVSSCNAVGRARTLGSNTYGYWGQGTQVTVSS | high polyreactivity
QVQLVESGGGLVQAGGSLRLSCAASGITFRRYTMGWYRQAPGKERELVAAITSRGSSTYYADSVKGRFTISRDNAKNTVYLQMNSLKPEDTAVYYCAAQYRQRRHDYWGQGTQVTVSS | high polyreactivity
QVQLVESGGGLVQAGGSLRLSCAASGSIFVPYAMGWYRQAPGKERELVAAISYSGGTTYADSVKGRFTISRDNAKNTVYLQMNRVKPEDTAVYYCAARYWRRWRQSVSLDYWGQGSQVTVSS | high polyreactivity
QVQLVESGGGLVQAGGSLRLSCAASGFTFGYNDMGWYRQAPGKERELVAAIRLSDGGTYYADSVKGRFTISRDNAKNTVYLQMNSLKPEDTAVYYCAAPQDTYIPYDYWGQGTQVTVSS | low polyreactivity
QVQLVESGGGLVQAGGSLRLSCAASGFIFFGEYVMGWYRQAPGKEREFVAAISRSSATTYYADSVKGRFTISRDTAKNTVYLQMNSLKPEDTAVYYCNAGDLGRRWGMDYWGQGTQVTVSS | low polyreactivity
QVQLVESGGGLVQAGGSLRLSCAATGFTFSLYGMGWYRQAPGKERELVAAIRSGGSTNYADSVKGRFTISRDNAKNTVYLQMNSLKPVDTAVYYCATDIHSVHNNRDKHDYDYWGQGTQVTVSS | low polyreactivity
QVQLVESGGGLVQAGGSLRLSCAASGSIFKKYAMGWYRQAPGKERELVAAISSTGGSTKYADSVKGRFTISRDNAKNTVYLQMNSLKPEDTAVYYCNAPGLRDYDAEYDYWGQGTQVTVSS | high polyreactivity
QVQLVESGGGLVQAGGSLRLSCAASGFTFYGYAMGWYRQAPGKERELVAGITSGGRTYYADSVKGRFTISRDNAKNTVYLQMNSLKPEDTAVYYCAARRITWGRFDYWGQGTQVTVSS | high polyreactivity
QVQLVESGGGLVQAGGSLRLSCAASGSTFRPYVMGWSRQAPGKERELVAAISWRGGTTYYADSVKGRFTISRDNAKNTVYLQMNSQKPEDPAVYYCAARGDQGVPVARRYDYWGQGTQVTVSS | high polyreactivity
QVQLVESGGGLVQAGGSLRLSCAASGSIFIYNAMGWYRQAPGKERELVAAISSSGGSTYYADSVKGRFTISRDNAKNTVYLQMNSLKPEDTAVYYCAARTYYVRGLGGRPGMDYCGQGTQVTVSS | low polyreactivity
QVQLVESGGGLVQAGGSLRLSCAASGRTFYQYAMGWYRQAPGKERELVAAISRRGGTTYYADSVKGRFTISRDNAKNTVYLQMNSLKPEDTAVYYCAASSLPAGEMYYWGQGTQVTVSS | high polyreactivity
QVQLVETGGGLVQAGGSLRLSCAASGRTFGIYAMGWYRQAPGKERELVAANTGRGGSTHYADSVKGRFTISRDNAKNTVYLQMNSLKPEDTEVYYGAADYRYNRGITSNKDYDYWGQGTQVTVSS | low polyreactivity
QVQLVESGGGLVQAGGSLRLSCAASGRTFIIYAMGWYRQAPGKERELVATISIGGSTYADSVKGRFTISRDNAKNTVYLQMNSLKPEDTAVYYCAARGRKYPPRDYWGQGPQVTVSS | high polyreactivity
